Experiment [1] concerns the target T1, human CD3 (huCD3ed) (human, UniProt P07766 23-126; P04234 22-105).
T1 construct: Soluble analyte in SPR; The delta chain is inferred from the label 'ed'; also called hCD3ed; hCD3
The experiment is described as follows: Biacore SPR, antibody as ligand, hCD3ed 80 nM-0.64 nM, kinetic fit. On the technique in general: Surface plasmon resonance follows binding to a sensor surface in real time, without labels.

In experiment [2] the target is T1, human CD3 (huCD3ed). The experiment is described as follows: SPR (ProteOn XPR36), IgG amine-coupled on chip, huCD3ed as analyte, 37 C. How it is done:
(§1) All experiments were performed on a Bio-Rad Proteon XPR36 surface Plasmon resonance biosensor (Bio-Rad, Hercules, CA). […] The analysis temperature for the immobilization was 25° C. and the running buffer was HBS-T+(10 mM HEPES, 150 mM NaCl, 0.05% Tween-20, pH 7.4). Channels were activated in the analyte (horizontal) direction by injecting a mixture of 1 mM ECD and 0.25 mM NHS for 3 minutes at a flow rate of 30 μL/min. IgGs were immobilized on the activated spots by injecting them in the ligand (vertical) direction at […] in 10 mM Acetate pH 4.5 buffer for 1.5 minutes at […]. The activated surfaces were blocked by injecting 1M ethanolamine, pH 8.5 in the analyte direction for 3 minutes at 30 μL/min.
(§2) The analysis temperature for the hCD3 binding analysis was 37° C. or 25° C. in a running buffer of HBS-T+, supplemented with 1 mg/mL BSA. A kinetic titration method was employed for the interaction analysis as described in Abdiche, et al. The hCD3 (human CD3) analyte was injected in the analyte direction using a series of injections from low to high concentration. The concentrations used were 0.08 nM, 0.4 nM, 2 nM, 10 nM and 50 nM (a 5-membered series, with a 5-fold dilution factor and top concentration of 50 nM). The association time for a given analyte dilution was two minutes. Immediately after the 50 nM hCD3 injection, dissociation was monitored for 2 hours.
(§3) The sensorgrams were double-referenced and fit to a 1:1 Langmuir with mass transport kinetic titration model in BIAevaluation Software version 4.1.1 (GE Lifesciences, Piscataway, NJ).

In experiment [3] the target is T1, human CD3 (huCD3ed). Nature of the experiment: SPR (ProteOn XPR36), IgG on chip, huCD3ed analyte, 37 C; column head says nM but kd/ka gives this number in M. How it is done:
as §1, §2, §3

The target in experiment [4] is T1, human CD3 (huCD3ed). Nature of the experiment: SPR (ProteOn XPR36), IgG amine-coupled on chip, huCD3ed as analyte, 25 C. How it is done:
as §1, §2, §3

Another experiment concerns the target T2, cynomolgus CD3 (cyCD3ed) (cynomolgus, UniProt Q95LI5 22-117; Q95LI8 22-105).
T2 construct: Named only by the column head 'cyCD3ed'
Nature of the experiment: SPR (ProteOn XPR36), IgG amine-coupled on chip, cyCD3ed as analyte, 25 C.

In experiment [5] the target is T3, cyBCMA (cynomolgus, UniProt A0A2K5UD97 1-53).
T3 construct: Soluble analyte in SPR; construct not described; also called cyno BCMA
T3 sequence (A0A2K5UD97 entry or part of it): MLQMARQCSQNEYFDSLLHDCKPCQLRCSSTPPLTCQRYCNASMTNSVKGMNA
The experiment is described as follows: SPR, immobilised IgG, 25° C.

The target of experiment [6] is T4, human BCMA (human, UniProt Q02223 1-54).
T4 construct: also called huBCMA; hBCMA
T4 sequence: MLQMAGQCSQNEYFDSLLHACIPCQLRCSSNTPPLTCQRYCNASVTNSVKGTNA
The experiment is described as follows: SPR, immobilised IgG, 25° C.

The target in experiment [7] is T3, cyBCMA. Nature of the experiment: SPR, immobilised IgG, 37° C.
The target in experiment [8] is T4, human BCMA. Nature of the experiment: SPR, immobilised IgG, 37° C.

Residue numbers refer to the chain shown, from its start.

T1 sequence (P07766 23-126, chain 1 of 2): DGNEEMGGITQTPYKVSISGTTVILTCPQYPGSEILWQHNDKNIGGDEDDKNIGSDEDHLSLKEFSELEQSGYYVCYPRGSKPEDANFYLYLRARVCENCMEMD
T1 sequence (P04234 22-105, chain 2 of 2): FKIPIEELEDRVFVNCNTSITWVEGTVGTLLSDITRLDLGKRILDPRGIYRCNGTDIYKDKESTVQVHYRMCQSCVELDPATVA
T2 sequence (Q95LI5 22-117, chain 1 of 2): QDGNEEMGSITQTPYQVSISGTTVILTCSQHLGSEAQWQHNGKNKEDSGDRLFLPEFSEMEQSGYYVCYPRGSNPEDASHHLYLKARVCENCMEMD
T2 sequence (Q95LI8 22-105, chain 2 of 2): as the sequence (P04234 22-105, chain 2 of 2) above, with I5V, N15K, I20V, S32T, D33N, I34N, T64A, S74N, V83L counted along it

B1: 2B4 (antibody, mouse IgG1, V domains shown)
VH: EVKLVESGGGLVQPGGSLRLSCATFGFTFTDYYMTWVRQPPGKALEWVAFIRNRARGYTSDHNASVKGRFTISRDNSQNILYLQMNTLRAEDSATYYCARDRPSYYVLDYWGQGTTVTVSS
VL: DIVMSQSPPSLAVSVGDKVTMSCTSSQSLFNSRSRKNYLAWYQQKSGQSPKLLISWASTRESGVPDRFTGSGSGTDFTLTISSVQAEDLAVYYCKQSYDLFTFGSGTKLEIK
notes: Cloned from immunized mouse, expressed as mouse IgG1; also called anti-CD3 2B4
B1: in the experiment with human CD3 (huCD3ed) [1], the Kd is 7.33 nM and the “t1/2” value was 4.21 min.

B2: h2B4-VH-wt VL_TK (antibody, V domains shown)
VH: EVQLVESGGGLVQPGGSLRLSCAASGFTFSDYYMTWVRQAPGKGLEWVAFIRNRARGYTSDHNASVKGRFTISRDNAKNSLYLQMNSLRAEDTAVYYCARDRPSYYVLDYWGQGTTVTVSS
VL: DIVMTQSPDSLAVSLGERATINCKSSQSLFNVRSRKNYLAWYQQKPGQPPKLLISWASTRESGVPDRFSGSGSGTDFTLTISSLQAEDVAVYYCKQSYDLFTFGSGTKLEIK
notes: Anti-CD3; also called h2B4-TK
Regarding B2, in the experiment with human CD3 (huCD3ed) [2], the “T½” value amounted to 0.83 min, the koff is 0.014 s⁻¹ and the kon was 380000 M⁻¹ s⁻¹. Further, in the experiment with human CD3 (huCD3ed) [3], the affinity, expressed as Kd, was 38 nM.

B3: h2B4 (antibody, V domains shown)
VH: B2 VH
VL: B2 VL with K24T
notes: Anti-CD3; tested as human IgG immobilised on the chip; also called h2B4-1d
For B3, in the experiment with human CD3 (huCD3ed) [2], the “T½” value was found to be 0.84 min, the off-rate (koff) came out at 0.0137 s⁻¹ and the on-rate constant (kon) stood at 437000 M⁻¹ s⁻¹. Moreover, the Kd in the experiment with human CD3 (huCD3ed) [3] is 31.4 nM. For the same molecule, in the experiment with human CD3 (huCD3ed) [4], the Kd turned out to be 5.3 nM, the “T½” value worked out at 5.8 min, the koff amounted to 0.002 s⁻¹ and the kon worked out at 370000 M⁻¹ s⁻¹. Further, in the experiment with cynomolgus CD3 (cyCD3ed), the Kd was 3.8 nM, the “T½” value worked out at 7.7 min, the koff turned out to be 0.0015 s⁻¹ and the kon came out at 390000 M⁻¹ s⁻¹.

B4: h2B4-VH-yaps VL_TK (antibody, V domains shown)
VH: B2 VH with H62Y, N63A, A64P
VL: B2 VL
notes: Anti-CD3
With B4, in the experiment with human CD3 (huCD3ed) [2], the “T½” value was found to be 0.5 min, the koff stood at 0.023 s⁻¹ and the kon was determined as 250000 M⁻¹ s⁻¹. In the experiment with human CD3 (huCD3ed) [3], this molecule displayed a Kd of 92 nM.

B5: h2B4-VH-yaes VL_TK (antibody, V domains shown)
VH: B2 VH with H62Y, N63A, A64E
VL: B2 VL
notes: Anti-CD3; also called h2B4-yaesTK
For B5, in the experiment with human CD3 (huCD3ed) [2], the “T½” value was 0.5 min, the off-rate (koff) turned out to be 0.023 s⁻¹ and the kon was determined as 230000 M⁻¹ s⁻¹. This molecule also gave a Kd with human CD3 (huCD3ed) [3] of 100 nM.

B6: h2B4-VH-hnps VL_TK (antibody, V domains shown)
VH: B2 VH with A64P
VL: B2 VL
notes: Anti-CD3; also called h2B4-hnpsTK
For B6, in the experiment with human CD3 (huCD3ed) [2], the “T½” value is 0.72 min, the koff was found to be 0.016 s⁻¹ and the kon was determined as 390000 M⁻¹ s⁻¹. In the experiment with human CD3 (huCD3ed) [3], binding was put at a Kd of 41 nM.

B7: h2B4-VH-yads VL_TK (antibody, V domains shown)
VH: B2 VH with H62Y, N63A, A64D
VL: B2 VL
notes: Anti-CD3
As for B7, in the experiment with human CD3 (huCD3ed) [2], the “T½” value came to 0.79 min, the dissociation rate constant (koff) was found to be 0.021 s⁻¹ and the kon is 240000 M⁻¹ s⁻¹. Also, the Kd in the experiment with human CD3 (huCD3ed) [3] amounted to 86 nM.

B8: 1C10 (antibody, mouse IgG1, V domains shown)
VH: QVQLQQPGSELVRPGASVILSCKASGYTFTSYWMHWVRQRPGQGLEWIGNIYSGGDTINYDEKFKNKAILTVDTSSSTAYMHLSSLTSEDSAVYYCTRDATSRYFFDYWGQGTTVTVSS
VL: DIVMSQSPSSLAVSAGEKVTMSCKSSQSLLNSRTRKNYLAWYQQKPGQSPKLLIYWASTRESGVPDRFTGSGSGTDFTLTIDSVQPEDLAVYYCTQSFILRTFGGGTKLEIK
notes: Cloned from immunized mouse, expressed as mouse IgG1; also called anti-CD3 1C10
On to B8, for which, in the experiment with human CD3 (huCD3ed) [1], the affinity, expressed as Kd, was 8 nM and the “t1/2” value was 4.88 min.

B9: L3.PY/P6E01 (antibody, V domains shown)
VH: EVQLLESGGGLVQPGGSLRLSCAASGFTFGSYAMTWVRQAPGKGLEWVSAISGSGGNTFYADSVKGRFTISRDNSKNTLYLQMNSLRAEDTAVYYCARVSPIASGMDYWGQGTLVTVSS
VL: EIVLTQSPGTLSLSPGERATLSCRASQSVSSSYLAWYQQKPGQAPRLLIYGASSRATGIPDRFSGSGSGTDFTLTISRLEPEDFAVYYCQHYPYPPSFTFGQGTKVEIK
notes: IgG in the assay
Take B9: the “T½” value was determined as 3.9 min with cyBCMA [5], 50.7 min with human BCMA [6], 0.88 min in the experiment with cyBCMA [7] and 5.91 min in the experiment with human BCMA [8].

B10: L1.LGF/L3.NY/P6E01 (antibody, V domains shown)
VH: B9 VH
VL: B9 VL with V29L, S30G, S32F, P93N
notes: IgG in the assay
On to B10, for which the “T½” value is 1.1 min with cyBCMA [5] and 2.63 min in the experiment with human BCMA [6].

B11: L1.LGF/L3.PY/H3.AP (antibody, V domains shown)
VH: B9 VH with S104A, G105P
VL: B9 VL with V29L, S30G, S32F
notes: IgG in the assay
B11: the “T½” value in the experiment with cyBCMA [5] is 0.9 min; with human BCMA [6], 11.9 min.

B12: L1.LGF/L3.PY/H3.AQ (antibody, V domains shown)
VH: B9 VH with S104A, G105Q
VL: B9 VL with V29L, S30G, S32F
notes: IgG in the assay
Regarding B12, the “T½” value with cyBCMA [5] worked out at 2.4 min; with human BCMA [6] it was 13 min.

B13: L3.NY/P6E01 (antibody, V domains shown)
VH: B9 VH
VL: B9 VL with P93N
notes: IgG in the assay
On to B13, for which the “T½” value in the experiment with cyBCMA [5] was 4 min; with human BCMA [6] it was 30.1 min.

B14: L1.LGF/L3.NY/H3.AQ (antibody, V domains shown)
VH: B9 VH with S104A, G105Q
VL: B9 VL with V29L, S30G, S32F, P93N
notes: IgG in the assay
B14: the figures for the “T½” value in the experiment with cyBCMA [5] and with human BCMA [6] were 7.8 min and 38.6 min, respectively.

B15: L3.KW/P6E01 (antibody, V domains shown)
VH: B9 VH
VL: B9 VL with Q90K, P93G, Y94W
notes: IgG in the assay
As to B15, the results for the “T½” value with cyBCMA [5] and with human BCMA [6] were 4.5 min and 36.7 min, respectively.

B16: UCHT1 (antibody, V domains shown)
VH: EVQLQQSGPELVKPGPSMKISCKASGYSFTGYTMNWVKQSHGKNLEWMGLINPYKGVSTYNQKFKDKATLTVDKSSSTAYMELLSLTSEDSAVYYCARSGYYGDSDWYFDVWGQGTTLTVFS
VL: DIQMTQTTSSLSASLGDRVTISCRASQDIRNYLNWYQQKPDGTVKLLIYYTSRLHSGVPSKFSGSGSGTDYSLTISNLEQEDIATYFCQQGNTLPWTFAGGTKLEIKR
Take B16: in the experiment with human CD3 (huCD3ed) [1], the Kd was under 4.74 nM and the “t1/2” value was over 13.5 min.

As a reminder, the Kd is the constant that tells how readily two partners part at equilibrium. A low value points to a tighter complex. What is called koff is a measure of how fast the partners let go of each other. A higher koff goes with a short-lived complex. As usually defined, the kon is the second-order rate constant of association. Low readings indicate slow association, high ones fast association.

The values are drawn from US20240018252A1 (Pfizer, published 2024).
